Data: the supplement of paper PMC10567573

B1: LRRC45 (parent)
chain: FQTRQEMTSMSAELKMRAIQAEER

Variants of: B1
Test: protein stability index of a GFP-peptide fusion (GPS, HEK-293T) (PSI 1-6); higher = more stable
Conditions: c terminus: a fixed tail appended
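Also: lentivirally expressed fusions sorted by FACS into six bins by GFP to DsRed ratio, PSI derived from sequencing read proportions per bin multiplied by bin number.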

Variant	protein stability index
FQTRQEMTSMSAELKMDAIQAEER [R17D]	4.59
FQTRQEMTSMSAELKMSAIQAEER [R17S]	3.43
FQTRQEMTSMSAELKMIAIQAEER [R17I]	3.94
FQTRQEMTSMSAELKMFAIQAEER [R17F]	2.84
FQTRQEMTSMSAELKMKAIQAEER [R17K]	4.25
FQTRQEMTSMSAELKMYAIQAEER [R17Y]	3.67
FQTRQEMTSMSAELKMCAIQAEER [R17C]	4.01
FQTRQEMTSMSAELKMTAIQAEER [R17T]	4.08
FQTRQEMTSMSAELKMVAIQAEER [R17V]	3.75
FQTRQEMTSMSAELKMNAIQAEER [R17N]	4.07
FQTRQEMTSMSAELKMPAIQAEER [R17P]	4.33
FQTRQEMTSMSAELKMQAIQAEER [R17Q]	3.89
FQTRQEMTSMSAELKMMAIQAEER [R17M]	4.18
FQTRQEMTSMSAELKMAAIQAEER [R17A]	4.34
FQTRQEMTSMSAELKMHAIQAEER [R17H]	4.09
FQTRQEMTSMSAELKMWAIQAEER [R17W]	2.3
FQTRQEMTSMSAELKMGAIQAEER [R17G]	3.82
FQTRQEMTSMSAELKMEAIQAEER [R17E]	4.33
FQTRQEMTSMSAELKMLAIQAEER [R17L]	3.95
FQTRQEMTSMSAELKMRAIQAEFR [E23F]	2.99
FQTRQEMTSMSAELKMRAIQAEAR [E23A]	3.16
FQTRQEMTSMSAELKMRAIQAEYR [E23Y]	2.88
FQTRQEMTSMSAELKMRAIQAEPR [E23P]	3.81

Variant	protein stability index
FQTRQEMTSMSAELKMRAIQAEDR [E23D]	3.33
FQTRQEMTSMSAELKMRAIQAEMR [E23M]	3.16
FQTRQEMTSMSAELKMRAIQAEIR [E23I]	3.7
FQTRQEMTSMSAELKMRAIQAESR [E23S]	3.52
FQTRQEMTSMSAELKMRAIQAEVR [E23V]	3.22
FQTRQEMTSMSAELKMRAIQAEGR [E23G]	3.56
FQTRQEMTSMSAELKMRAIQAEKR [E23K]	3.53
FQTRQEMTSMSAELKMRAIQAELR [E23L]	3.1
FQTRQEMTSMSAELKMRAIQAEHR [E23H]	3.39
FQTRQEMTSMSAELKMRAIQAERR [E23R]	3.54
FQTRQEMTSMSAELKMRAIQAENR [E23N]	3.32
FQTRQEMTSMSAELKMRAIQAECR [E23C]	2.61
FQTRQEMTSMSAELKMRAIQAEQR [E23Q]	4.11
FQTRQEMTSMSAELKMRAIQAETR [E23T]	3.16
FQTRQEMTSMSAELKMRAIQAEWR [E23W]	2.26
FQTRQEMTSMSAELKMRAITAEER [Q20T]	3.9
FQTRQEMTSMSAELKMRAIYAEER [Q20Y]	3.08
FQTRQEMTSMSAELKMRAIPAEER [Q20P]	3.76
FQTRQEMTSMSAELKMRAIGAEER [Q20G]	3.62
FQTRQEMTSMSAELKMRAICAEER [Q20C]	3
FQTRQEMTSMSAELKMRAIHAEER [Q20H]	3.98
FQTRQEMTSMSAELKMRAIFAEER [Q20F]	2.26
FQTRQEMTSMSAELKMRAIKAEER [Q20K]	3.5

Variant	protein stability index
FQTRQEMTSMSAELKMRAILAEER [Q20L]	3.57
FQTRQEMTSMSAELKMRAIAAEER [Q20A]	4.3
FQTRQEMTSMSAELKMRAISAEER [Q20S]	4.11
FQTRQEMTSMSAELKMRAIWAEER [Q20W]	2.74
FQTRQEMTSMSAELKMRAIEAEER [Q20E]	4.34
FQTRQEMTSMSAELKMRAIIAEER [Q20I]	2.8
FQTRQEMTSMSAELKMRAIRAEER [Q20R]	3.2
FQTRQEMTSMSAELKMRAIMAEER [Q20M]	3.52
FQTRQEMTSMSAELKMRAIDAEER [Q20D]	3.99
FQTRQEMTSMSAELKMRAIVAEER [Q20V]	3.28
FQTRQEMTSMSAELKMRAINAEER [Q20N]	3.83
FQTRQEMTSMSAELKMRAIQAIER [E22I]	3.1
FQTRQEMTSMSAELKMRAIQAPER [E22P]	2.74
FQTRQEMTSMSAELKMRAIQAQER [E22Q]	3.37
FQTRQEMTSMSAELKMRAIQATER [E22T]	3.23
FQTRQEMTSMSAELKMRAIQARER [E22R]	3.18
FQTRQEMTSMSAELKMRAIQACER [E22C]	3.18
FQTRQEMTSMSAELKMRAIQAGER [E22G]	2.53
FQTRQEMTSMSAELKMRAIQAYER [E22Y]	3.9
FQTRQEMTSMSAELKMRAIQALER [E22L]	2.59
FQTRQEMTSMSAELKMRAIQAVER [E22V]	3.18
FQTRQEMTSMSAELKMRAIQAHER [E22H]	2.92
FQTRQEMTSMSAELKMRAIQASER [E22S]	3.28

Variant	protein stability index
FQTRQEMTSMSAELKMRAIQAFER [E22F]	2.56
FQTRQEMTSMSAELKMRAIQAAER [E22A]	3.56
FQTRQEMTSMSAELKMRAIQADER [E22D]	3.64
FQTRQEMTSMSAELKMRAIQAWER [E22W]	2.56
FQTRQEMTSMSAELKMRAIQAKER [E22K]	3.57
FQTRQEMTSMSAELKMRAIQAMER [E22M]	3.64
FQTRQEMTSMSAELKMRAIQANER [E22N]	3.44
FQTRQEMTSMSAELKMRAYQAEER [I19Y]	3.8
FQTRQEMTSMSAELKMRATQAEER [I19T]	4.21
FQTRQEMTSMSAELKMRACQAEER [I19C]	3.96
FQTRQEMTSMSAELKMRAWQAEER [I19W]	3.04
FQTRQEMTSMSAELKMRAEQAEER [I19E]	4.55
FQTRQEMTSMSAELKMRANQAEER [I19N]	4.27
FQTRQEMTSMSAELKMRAGQAEER [I19G]	3.89
FQTRQEMTSMSAELKMRAPQAEER [I19P]	3.84
FQTRQEMTSMSAELKMRAQQAEER [I19Q]	4.09
FQTRQEMTSMSAELKMRAMQAEER [I19M]	3.84
FQTRQEMTSMSAELKMRAFQAEER [I19F]	3.81
FQTRQEMTSMSAELKMRAHQAEER [I19H]	4.38
FQTRQEMTSMSAELKMRASQAEER [I19S]	4.38
FQTRQEMTSMSAELKMRARQAEER [I19R]	4.19
FQTRQEMTSMSAELKMRAKQAEER [I19K]	4.68
FQTRQEMTSMSAELKMRAVQAEER [I19V]	4.28

Variant	protein stability index
FQTRQEMTSMSAELKMRAAQAEER [I19A]	4.53
FQTRQEMTSMSAELKMRALQAEER [I19L]	4.08
FQTRQEMTSMSAELKMRADQAEER [I19D]	4.73
FQTRQEMTSMSAELKMRRIQAEER [A18R]	3.96
FQTRQEMTSMSAELKMRPIQAEER [A18P]	3.45
FQTRQEMTSMSAELKMRWIQAEER [A18W]	3.54
FQTRQEMTSMSAELKMRSIQAEER [A18S]	3.82
FQTRQEMTSMSAELKMRVIQAEER [A18V]	3.41
FQTRQEMTSMSAELKMRGIQAEER [A18G]	3.81
FQTRQEMTSMSAELKMRIIQAEER [A18I]	3.75
FQTRQEMTSMSAELKMRTIQAEER [A18T]	3.95
FQTRQEMTSMSAELKMREIQAEER [A18E]	4.08
FQTRQEMTSMSAELKMRNIQAEER [A18N]	3.88
FQTRQEMTSMSAELKMRMIQAEER [A18M]	3.73
FQTRQEMTSMSAELKMRHIQAEER [A18H]	3.33
FQTRQEMTSMSAELKMRCIQAEER [A18C]	3.69
FQTRQEMTSMSAELKMRYIQAEER [A18Y]	3.69
FQTRQEMTSMSAELKMRKIQAEER [A18K]	3.72
FQTRQEMTSMSAELKMRFIQAEER [A18F]	3.51
FQTRQEMTSMSAELKMRDIQAEER [A18D]	4.33
FQTRQEMTSMSAELKMRLIQAEER [A18L]	3.92
FQTRQEMTSMSAELKMRQIQAEER [A18Q]	3.85
FQTRQEMTSMSAELKTRAIQAEER [M16T]	3.96

Variant	protein stability index
FQTRQEMTSMSAELKWRAIQAEER [M16W]	3.66
FQTRQEMTSMSAELKVRAIQAEER [M16V]	3.99
FQTRQEMTSMSAELKYRAIQAEER [M16Y]	3.83
FQTRQEMTSMSAELKMRAIQYEER [A21Y]	3.76
FQTRQEMTSMSAELKMRAIQNEER [A21N]	4.15
FQTRQEMTSMSAELKMRAIQPEER [A21P]	3.89
FQTRQEMTSMSAELKMRAIQMEER [A21M]	3.57
FQTRQEMTSMSAELKMRAIQTEER [A21T]	3.83
FQTRQEMTSMSAELKMRAIQEEER [A21E]	4.32
FQTRQEMTSMSAELKMRAIQFEER [A21F]	3.89
FQTRQEMTSMSAELKMRAIQREER [A21R]	3.8
FQTRQEMTSMSAELKMRAIQHEER [A21H]	4.03
FQTRQEMTSMSAELKMRAIQWEER [A21W]	3.43
FQTRQEMTSMSAELKMRAIQQEER [A21Q]	3.79
FQTRQEMTSMSAELKMRAIQIEER [A21I]	3.49
FQTRQEMTSMSAELKMRAIQGEER [A21G]	3.97
FQTRQEMTSMSAELKMRAIQCEER [A21C]	3.68
FQTRQEMTSMSAELKMRAIQVEER [A21V]	3.59
FQTRQEMTSMSAELKMRAIQSEER [A21S]	3.81
FQTRQEMTSMSAELKMRAIQDEER [A21D]	4.63
FQTRQEMTSMSAELKMRAIQKEER [A21K]	3.76
FQTRQEMTSMSAELKMRAIQLEER [A21L]	4
FQTRQEMTSMSAELKMRAIQAEED [R24D]	4.29

Variant	protein stability index
FQTRQEMTSMSAELKMRAIQAEEF [R24F]	3.19
FQTRQEMTSMSAELKMRAIQAEEM [R24M]	3.54
FQTRQEMTSMSAELKMRAIQAEEE [R24E]	4.5
FQTRQEMTSMSAELKMRAIQAEEY [R24Y]	3.71
FQTRQEMTSMSAELKMRAIQAEEC [R24C]	3.4
FQTRQEMTSMSAELKMRAIQAEET [R24T]	3.96
FQTRQEMTSMSAELKMRAIQAEEH [R24H]	4.01
FQTRQEMTSMSAELKMRAIQAEEQ [R24Q]	4.5
FQTRQEMTSMSAELKMRAIQAEEG [R24G]	4.18
FQTRQEMTSMSAELKMRAIQAEEW [R24W]	2.85
FQTRQEMTSMSAELKMRAIQAEEI [R24I]	3.94
FQTRQEMTSMSAELKMRAIQAEES [R24S]	4.3
FQTRQEMTSMSAELKMRAIQAEEV [R24V]	3.67
FQTRQEMTSMSAELKMRAIQAEEK [R24K]	4.26
FQTRQEMTSMSAELKMRAIQAEEP [R24P]	3.88
FQTRQEMTSMSAELKMRAIQAEEL [R24L]	4.05
FQTRQEMTSMSAELKMRAIQAEEA [R24A]	4.19
FQTRQEMTSMSAELKMRAIQAEEN [R24N]	4.05
